From IntAct's records for PubMed 37100772

B1: Nucleoprotein (Zaire ebolavirus (strain Mayinga-76)), P18272 (parent)
chain: MDSRPQKIWMAPSLTESDMDYHKILTAGLSVQQGIVRQRVIPVYQVNNLEEICQLIIQAFEAGVDFQESADSFLLMLCLHHAYQGDYKLFLESGAVKYLEGHGFRFEVKKRDGVKRLEELLPAVSSGKNIKRTLAAMPEEETTEANAGQFLSFASLFLPKLVVGEKACLEKVQRQIQVHAEQGLIQYPTAWQSVGHMMVIFRLMRTNFLIKFLLIHQGMHMVAGHDANDAVISNSVAQARFSGLLIVKTVLDHILQKTERGVRLHPLARTAKVKNEVNSFKAALSSLAKHGEYAPFARLLNLSGVNNLEHGLFPQLSAIALGVATAHGSTLAGVNVGEQYQQLREAATEAEKQLQQYAESRELDHLGLDDQEKKILMNFHQKKNEISFQQTNAMVTLRKERLAKLTEAITAASLPKTSGHYDDDDDIPFPGPINDDDNPGHQDDDPTDSQDTTIPDVVVDPDDGSYGEYQSYSENGMNAPDDLVLFDLDEDDEDTKPVPNRSTKGGQQKNSQKGQHIEGRQTQSRPIQNVPGPHRTIHHASAPLTDNDRRNEPSGSTSPRMLTPINEEADPLDDADDETSSLPPLESDDEEQDRDGTSNRTPTVAPPAPVYRDHSEKKELPQDEQQDQDHTQEARNQDSDNTQSEHSFEEMYRHILRSQGPFDAVLYYHMMKDEPVVFSTSDGKEYTYPDSLEEEYPPWLTEKEAMNEENRFVTLDGQQFYWPVMNHKNKFMAILQHHQ
partner: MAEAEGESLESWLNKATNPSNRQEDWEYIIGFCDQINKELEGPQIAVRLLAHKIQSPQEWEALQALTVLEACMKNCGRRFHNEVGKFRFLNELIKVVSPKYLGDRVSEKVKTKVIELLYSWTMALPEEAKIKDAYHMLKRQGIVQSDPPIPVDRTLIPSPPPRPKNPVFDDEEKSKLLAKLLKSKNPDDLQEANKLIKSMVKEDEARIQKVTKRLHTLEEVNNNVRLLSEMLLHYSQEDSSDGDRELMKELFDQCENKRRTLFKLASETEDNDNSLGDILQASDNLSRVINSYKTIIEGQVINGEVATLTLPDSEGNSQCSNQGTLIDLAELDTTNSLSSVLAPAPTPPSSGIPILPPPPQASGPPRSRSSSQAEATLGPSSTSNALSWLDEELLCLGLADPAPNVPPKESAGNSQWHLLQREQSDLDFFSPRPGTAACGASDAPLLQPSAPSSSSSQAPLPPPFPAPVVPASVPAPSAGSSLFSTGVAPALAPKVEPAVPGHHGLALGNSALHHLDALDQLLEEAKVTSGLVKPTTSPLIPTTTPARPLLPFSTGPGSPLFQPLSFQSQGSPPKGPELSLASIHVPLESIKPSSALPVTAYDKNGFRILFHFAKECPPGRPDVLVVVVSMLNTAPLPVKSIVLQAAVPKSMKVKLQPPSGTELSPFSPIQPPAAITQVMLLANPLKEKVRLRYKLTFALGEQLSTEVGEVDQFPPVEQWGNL
B2: Nucleoprotein (Zaire ebolavirus (strain Mayinga-76)), P18272 (parent)
chain: B1 chain

Variants of: B1
Details: with gga3_human GGA3, Q9NZ52

Which “effect of a mutation on the interaction” value does the source give for Y469A here?
Its value is “disrupting interaction strength”.

Variants of: B2
Details: with ap2m1_human AP2M1, Q96CW1
Sequence of ap2m1_human AP2M1, Q96CW1 (Q96CW1 whole entry): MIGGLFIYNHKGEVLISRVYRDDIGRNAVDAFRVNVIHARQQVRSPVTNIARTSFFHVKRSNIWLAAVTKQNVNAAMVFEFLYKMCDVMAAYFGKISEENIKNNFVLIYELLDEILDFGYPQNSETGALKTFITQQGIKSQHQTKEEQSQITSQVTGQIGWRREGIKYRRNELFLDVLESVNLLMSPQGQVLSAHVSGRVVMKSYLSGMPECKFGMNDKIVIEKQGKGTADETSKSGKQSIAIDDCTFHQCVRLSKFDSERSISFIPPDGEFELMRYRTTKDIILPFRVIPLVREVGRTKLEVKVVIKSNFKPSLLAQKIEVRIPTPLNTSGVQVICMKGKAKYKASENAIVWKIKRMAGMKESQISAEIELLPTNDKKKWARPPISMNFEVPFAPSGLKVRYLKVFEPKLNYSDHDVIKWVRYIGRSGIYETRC

With Y340A;L343A as the variant, how does the “effect of a mutation on the interaction” value read?
The value was “with no effect”.
